From patent US20230013244A1 (BioIncept, LLC, priority 2014, published 2023) come the findings set out here.

The target in test [1] is Isoform SV of 14-3-3 protein epsilon (human) (UniProt P62258). In words: PIF affinity column + LC-MS/MS, CD14+ cell lysate.
The next test deals with Thrombospondin-1 (human) (UniProt P07996). In words: PIF affinity column + LC-MS/MS, CD14+ cell lysate.
Thrombospondin-1 (human), sequence (P07996 19-1170 limits assumed): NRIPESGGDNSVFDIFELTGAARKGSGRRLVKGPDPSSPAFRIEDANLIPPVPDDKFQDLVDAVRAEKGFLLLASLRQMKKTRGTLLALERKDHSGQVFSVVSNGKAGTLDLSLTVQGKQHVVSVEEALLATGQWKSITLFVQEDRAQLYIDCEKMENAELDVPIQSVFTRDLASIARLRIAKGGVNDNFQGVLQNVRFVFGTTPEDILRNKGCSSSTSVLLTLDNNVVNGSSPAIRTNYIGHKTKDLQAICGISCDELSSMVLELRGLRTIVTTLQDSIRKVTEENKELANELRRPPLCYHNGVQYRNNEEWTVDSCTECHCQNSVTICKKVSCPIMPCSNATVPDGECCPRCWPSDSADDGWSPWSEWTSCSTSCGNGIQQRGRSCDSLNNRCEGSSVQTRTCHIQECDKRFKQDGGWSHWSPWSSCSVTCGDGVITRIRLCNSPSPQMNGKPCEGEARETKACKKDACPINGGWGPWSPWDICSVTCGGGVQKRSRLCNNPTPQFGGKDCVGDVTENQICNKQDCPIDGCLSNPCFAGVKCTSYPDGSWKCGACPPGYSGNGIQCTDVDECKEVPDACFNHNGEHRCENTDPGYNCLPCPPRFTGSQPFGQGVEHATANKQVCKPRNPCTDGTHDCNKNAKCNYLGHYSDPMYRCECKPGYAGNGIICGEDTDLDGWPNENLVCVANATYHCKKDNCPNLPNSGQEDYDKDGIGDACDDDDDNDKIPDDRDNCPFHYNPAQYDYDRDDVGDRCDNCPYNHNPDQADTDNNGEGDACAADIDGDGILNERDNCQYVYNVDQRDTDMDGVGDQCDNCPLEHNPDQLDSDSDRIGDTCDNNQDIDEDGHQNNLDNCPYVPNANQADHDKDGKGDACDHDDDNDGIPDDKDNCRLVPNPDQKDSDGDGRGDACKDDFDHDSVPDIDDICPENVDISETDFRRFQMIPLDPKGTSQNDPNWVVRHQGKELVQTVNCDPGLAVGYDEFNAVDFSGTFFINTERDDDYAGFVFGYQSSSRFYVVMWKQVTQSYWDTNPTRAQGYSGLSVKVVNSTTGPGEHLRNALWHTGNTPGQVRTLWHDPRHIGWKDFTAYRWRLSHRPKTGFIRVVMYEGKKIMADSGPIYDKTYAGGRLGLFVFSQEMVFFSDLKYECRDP

Isoform SV of 14-3-3 protein epsilon (human), sequence (P62258 23-255 limits assumed): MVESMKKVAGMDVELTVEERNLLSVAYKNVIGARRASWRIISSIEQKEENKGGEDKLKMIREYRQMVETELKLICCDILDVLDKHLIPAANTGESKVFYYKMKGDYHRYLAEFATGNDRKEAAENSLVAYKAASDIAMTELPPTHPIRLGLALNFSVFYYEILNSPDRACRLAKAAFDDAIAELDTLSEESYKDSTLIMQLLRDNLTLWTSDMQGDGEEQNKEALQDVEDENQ

In the case of “PIF-resin (PIF15 affinity ligand on agarose) (peptide)”, in test [1], the Inject 1 worked out at 4 and the Inject 2 was 4. Further, in the test with Thrombospondin-1 (human), the Inject 2 is 5 and the Inject 3 amounted to 8.
